The target of the assay is T1, Wwp2 protein purified from transfected HEK293T cells (in vitro pull-down) (mouse, UniProt Q9DBH0 1-870).
T1 construct: Wwp2; plasmids were built from full-length cDNA NM_025830.3; source: HEK293T, transfected, purified (tagged protein magnetic purification kit)
Briefly: pull-down; in vitro pull-down using His-tag (Dynabeads His-Tag Isolation and Pulldown); proteins purified from transfected HEK293T cells. The note with it: both partners purified.

This is an account of results in article PMC6546747, “Wwp2 maintains cartilage homeostasis through regulation of Adamts5” (Nature Communications, 2019).

T1 sequence (Q9DBH0 whole entry): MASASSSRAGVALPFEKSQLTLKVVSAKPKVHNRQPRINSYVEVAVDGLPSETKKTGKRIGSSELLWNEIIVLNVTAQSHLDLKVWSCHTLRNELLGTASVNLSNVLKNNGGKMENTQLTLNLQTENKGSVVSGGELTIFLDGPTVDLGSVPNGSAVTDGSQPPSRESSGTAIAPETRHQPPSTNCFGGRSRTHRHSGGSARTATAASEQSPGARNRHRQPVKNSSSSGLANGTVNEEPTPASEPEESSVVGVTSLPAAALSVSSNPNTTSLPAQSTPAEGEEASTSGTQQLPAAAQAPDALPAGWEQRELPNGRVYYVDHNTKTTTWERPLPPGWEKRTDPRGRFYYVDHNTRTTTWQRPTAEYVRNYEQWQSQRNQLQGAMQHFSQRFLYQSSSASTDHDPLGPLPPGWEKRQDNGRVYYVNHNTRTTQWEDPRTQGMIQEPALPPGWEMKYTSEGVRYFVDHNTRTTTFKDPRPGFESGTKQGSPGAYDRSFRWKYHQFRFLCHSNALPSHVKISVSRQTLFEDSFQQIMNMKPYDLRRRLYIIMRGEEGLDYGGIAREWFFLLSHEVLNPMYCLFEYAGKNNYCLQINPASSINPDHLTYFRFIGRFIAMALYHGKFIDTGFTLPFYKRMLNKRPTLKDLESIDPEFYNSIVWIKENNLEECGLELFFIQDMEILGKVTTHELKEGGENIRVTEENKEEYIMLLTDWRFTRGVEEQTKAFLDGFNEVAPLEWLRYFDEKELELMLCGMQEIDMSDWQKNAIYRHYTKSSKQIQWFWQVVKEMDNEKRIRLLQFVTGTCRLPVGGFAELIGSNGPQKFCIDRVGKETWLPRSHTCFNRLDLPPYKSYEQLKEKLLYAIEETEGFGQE

B1: Runx2 protein purified from transfected HEK293T cells (in vitro pull-down) (natural protein, mouse, UniProt Q08775-5 1-528, looked up)
chain: MASNSLFSAVTPCQQSFFWDPSTSRRFSPPSSSLQPGKMSDVSPVVAAQQQQQQQQQQQQQQQQQQQQQQQQQQQQQEAAAAAAAAAAAAAAAAAAVPRLRPPHDNRTMVEIIADHPAELVRTDSPNFLCSVLPSHWRCNKTLPVAFKVVALGEVPDGTVVTVMAGNDENYSAELRNASAVMKNQVARFNDLRFVGRSGRGKSFTLTITVFTNPPQVATYHRAIKVTVDGPREPRRHRQKLDDSKPSLFSDRLSDLGRIPHPSMRVGVPPQNPRPSLNSAPSPFNPQGQSQITDPRQAQSSPPWSYDQSYPSYLSQMTSPSIHSTTPLSSTRGTGLPAITDVPRRISDDDTATSDFCLWPSSLSKKSQAGASELGPFSDPRQFPSISSLTESRFSNPRMHYPATFTYTPPVTSGMSLGMSATTHYHTYLPPPYPGSSQSQSGPFQTSSTPYLYYGTSSASYQFPMVPGGDRSPSRMVPPCTTTSNGSTLLNPNLPNQNDGVDADGSHSSSPTVLNSSGRMDESVWRPY
notes: Runx2; plasmids were built from full-length cDNA NM_001146038.2; source: HEK293T, transfected, purified (tagged protein magnetic purification kit)
On to B1, for which the binding result is “binds”.
